Biological target: T1, PUF4 RNA-binding domain (Saccharomyces cerevisiae, UniProt P25339 537-888)
T1 sequence: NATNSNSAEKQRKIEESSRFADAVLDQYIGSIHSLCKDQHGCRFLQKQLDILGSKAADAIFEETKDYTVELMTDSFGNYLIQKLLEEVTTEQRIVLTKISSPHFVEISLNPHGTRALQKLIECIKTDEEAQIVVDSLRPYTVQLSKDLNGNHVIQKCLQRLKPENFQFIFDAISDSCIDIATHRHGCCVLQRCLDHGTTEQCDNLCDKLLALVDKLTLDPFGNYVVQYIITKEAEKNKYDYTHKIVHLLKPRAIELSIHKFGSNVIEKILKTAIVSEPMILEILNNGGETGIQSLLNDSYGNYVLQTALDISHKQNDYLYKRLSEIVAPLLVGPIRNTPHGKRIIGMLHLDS
Experiment: Mg; RNA-MaP; 20 mM Na-HEPES pH 7.4, 30 mM KOAc, 0.75 mM MgCl2, 0.1% Tween-20, 5% glycerol, 0.1 mg/mL BSA, 2 mM DTT; 25 C; 0.0125-409.6 nM protein
Settings: tags: N-His6-TEV cleaved; C-SNAP kept, Cy3B-labelled; label: tethered on chip by stalled RNA polymerase

| Binder | Kd [nM] |
| --- | --- |
| Ic_S2_P4E.1_K4.1_C4.1_H4.1_A4.1_[T5G]_[A6C]_[T7G]_F4.1_[T8G]_[A9T]_T4.1 (ssRNA) RNA: UUUGAUUAAUAUGAUAUCGUUCUUUCUUGUAGCGGUUUCUUUCUCGAUAUCAUAUUAAUCUUU | 808 |
| Ic_S2_P4E.1_K4.1_C4.1_H4.1_A4.1_[T5G]_[A6C]_[T7G]_F4.1_T4.1 (ssRNA) RNA: UUUGAUUAAUAUGAUAUCGUUCUUUCUUGUAGCGUAUUCUUUCUCGAUAUCAUAUUAAUCUUU | 9.8 |
| Ic_S2_P4E.1_K4.1_C4.1_H4.1_A4.1_[T5G]_[A6C]_[T7C]_F4.1_T4.1 (ssRNA) RNA: UUUGAUUAAUAUGAUAUCGUUCUUUCUUGUAGCCUAUUCUUUCUCGAUAUCAUAUUAAUCUUU | 5.95 |
| Ic_S2_P4E.1_K4.1_C4.1_H4.1_A4.1_[T5G]_[A6C]_[T7C]_F4.1_[T8C]_T4.1 (ssRNA) RNA: UUUGAUUAAUAUGAUAUCGUUCUUUCUUGUAGCCCAUUCUUUCUCGAUAUCAUAUUAAUCUUU | 1090 |
| Ic_S2_P4E.1_K4.1_C4.1_H4.1_A4.1_[T5G]_[A6C]_[T7C]_F4.1_[T8A]_[A9C]_T4.1 (ssRNA) RNA: UUUGAUUAAUAUGAUAUCGUUCUUUCUUGUAGCCACUUCUUUCUCGAUAUCAUAUUAAUCUUU | 1280 |
| Ic_S2_P4E.1_K4.1_C4.1_H4.1_A4.1_[T5G]_[A6C]_[T7C]_F4.1_[T8C]_[A9C]_T4.1 (ssRNA) RNA: UUUGAUUAAUAUGAUAUCGUUCUUUCUUGUAGCCCCUUCUUUCUCGAUAUCAUAUUAAUCUUU | 685 |
| Ic_S2_P4E.1_K4.1_C4.1_H4.1_A4.1_[T5G]_[A6C]_[T7C]_F4.1_[T8G]_[A9C]_T4.1 (ssRNA) RNA: UUUGAUUAAUAUGAUAUCGUUCUUUCUUGUAGCCGCUUCUUUCUCGAUAUCAUAUUAAUCUUU | > 2300 |
| Ic_S2_P4E.1_K4.1_C4.1_H4.1_A4.1_[T5G]_[A6C]_[T7G]_F4.1_[A9C]_T4.1 (ssRNA) RNA: UUUGAUUAAUAUGAUAUCGUUCUUUCUUGUAGCGUCUUCUUUCUCGAUAUCAUAUUAAUCUUU | 782 |
| Ic_S2_P4E.1_K4.1_C4.1_H4.1_A4.1_[T5G]_[A6C]_[T7C]_F4.1_[T8C]_[A9T]_T4.1 (ssRNA) RNA: UUUGAUUAAUAUGAUAUCGUUCUUUCUUGUAGCCCUUUCUUUCUCGAUAUCAUAUUAAUCUUU | 614 |
| Ic_S2_P4E.1_K4.1_C4.1_H4.1_A4.1_[T5G]_[A6C]_[T7C]_F4.1_[T8C]_[A9G]_T4.1 (ssRNA) RNA: UUUGAUUAAUAUGAUAUCGUUCUUUCUUGUAGCCCGUUCUUUCUCGAUAUCAUAUUAAUCUUU | 1680 |
| Ic_S2_P4E.1_K4.1_C4.1_H4.1_A4.1_[T5G]_[A6C]_[T7C]_F4.1_[A9G]_T4.1 (ssRNA) RNA: UUUGAUUAAUAUGAUAUCGUUCUUUCUUGUAGCCUGUUCUUUCUCGAUAUCAUAUUAAUCUUU | 300 |
| Ic_S2_P4E.1_K4.1_C4.1_H4.1_A4.1_[T5G]_[A6C]_[T7C]_F4.1_[T8A]_[A9G]_T4.1 (ssRNA) RNA: UUUGAUUAAUAUGAUAUCGUUCUUUCUUGUAGCCAGUUCUUUCUCGAUAUCAUAUUAAUCUUU | > 2300 |
| Ic_S2_P4E.1_K4.1_C4.1_H4.1_A4.1_[T5G]_[A6C]_[T7C]_F4.1_[A9T]_T4.1 (ssRNA) RNA: UUUGAUUAAUAUGAUAUCGUUCUUUCUUGUAGCCUUUUCUUUCUCGAUAUCAUAUUAAUCUUU | 48 |
| Ic_S2_P4E.1_K4.1_C4.1_H4.1_A4.1_[T5G]_[A6C]_[T7G]_F4.1_[T8C]_[A9C]_T4.1 (ssRNA) RNA: UUUGAUUAAUAUGAUAUCGUUCUUUCUUGUAGCGCCUUCUUUCUCGAUAUCAUAUUAAUCUUU | 750 |
| Ic_S2_P4E.1_K4.1_C4.1_H4.1_A4.1_[T5G]_[A6C]_[T7C]_F4.1_[T8A]_[A9T]_T4.1 (ssRNA) RNA: UUUGAUUAAUAUGAUAUCGUUCUUUCUUGUAGCCAUUUCUUUCUCGAUAUCAUAUUAAUCUUU | 402 |
| Ic_S2_P4E.1_K4.1_C4.1_H4.1_A4.1_[T5G]_[A6C]_[T7G]_F4.1_[T8C]_[A9G]_T4.1 (ssRNA) RNA: UUUGAUUAAUAUGAUAUCGUUCUUUCUUGUAGCGCGUUCUUUCUCGAUAUCAUAUUAAUCUUU | > 2300 |
| UCUCUUUUUAUUUAUCUCUU (ssRNA) [Ib_S1_P3E.1_K3.1_C3.1_H3.1_[G2T]_A3.1_[A6T]_F3.1_T3.1] | > 2300 |
| UCUCUUUGUAUAUUCUCUCUU (ssRNA) [Ic_S1_P4E.1_K4.1_C4.1_H4.1_A4.1_F4.1_[A9C]_T4.1] | 6.17 |
| Ic_S2_P3E.1_K3.1_C3.1_H3.1_A3.1_[T5A]_[A6C]_F3.1_[T7C]_[A8G]_T3.1 (ssRNA) RNA: UUUGAUUAAUAUGAUAUCGUUCUUUCUUGUAACCGUUCUUUCUCGAUAUCAUAUUAAUCUUU | 626 |
| Ic_S2_P3E.1_K3.1_C3.1_H3.1_A3.1_[A6C]_F3.1_[T7C]_[A8C]_T3.1 (ssRNA) RNA: UUUGAUUAAUAUGAUAUCGUUCUUUCUUGUAUCCCUUCUUUCUCGAUAUCAUAUUAAUCUUU | 132 |
| Ic_S2_P3E.1_K3.1_C3.1_H3.1_A3.1_[T5A]_[A6T]_F3.1_[T7A]_[A8C]_T3.1 (ssRNA) RNA: UUUGAUUAAUAUGAUAUCGUUCUUUCUUGUAAUACUUCUUUCUCGAUAUCAUAUUAAUCUUU | 158 |
| Ic_S2_P3E.1_K3.1_C3.1_H3.1_A3.1_[T5A]_F3.1_[T7A]_[A8C]_T3.1 (ssRNA) RNA: UUUGAUUAAUAUGAUAUCGUUCUUUCUUGUAAAACUUCUUUCUCGAUAUCAUAUUAAUCUUU | 621 |
| Ic_S2_P3E.1_K3.1_C3.1_H3.1_A3.1_[A6T]_F3.1_[T7C]_[A8G]_T3.1 (ssRNA) RNA: UUUGAUUAAUAUGAUAUCGUUCUUUCUUGUAUUCGUUCUUUCUCGAUAUCAUAUUAAUCUUU | 234 |

— article PMC9352680, “A comprehensive thermodynamic model for RNA binding by the Saccharomyces cerevisiae Pumilio protein PUF4”
